Biological target: microtubules of cultured mouse hippocampal neurons (mouse (endogenous in cultured hippocampal neurons)) (UniProt P68369)
Experiment: immunostaining of cells or tissue

Q: For “tailless KIF5B G234A::YFP (from UniProt Q61768 1-761) (domain or fragment)”, which fluorescence ratio of rigor-KIF5::GFP to tubulin staining, in axons is on record?
A: 1.2

Q: What about the fluorescence ratio of rigor-KIF5::GFP to tubulin staining, in dendrites of the same substance?
A: 0.5

From PMC2172855
